From patent US7615380B2, “Methods for modulating an immune response by modulating KRC activity” (President and Fellows of Harvard College, priority 2001, dated 2009)
Where two headings read alike, the source gives them in different places.

Columns and labels:
AP-1 = AP-1 luciferase reporter in Jurkat cells, KRC-enhanced transactivation after PMA plus ionomycin; format: cell-based, human; conditions: pretreated with Rottlerin (10 μM), PMA plus ionomycin 6 hours
Method: FIG. 20(A) Jurkat cells were transiently transfected with AP-1 Luciferase reporter along with KRC and RasN17 DN vectors. 24 hours later cells were pretreated with Rottlerin (10 μM) and stimulated for 6 hours with PMA plus ionomycin. Luciferase activity was measured as above. FIG. 20(B) Jurkat cells were transfected with a GAL4 Luciferase reporter along with a GAL4 DNA binding domain, GAL4-ATF2, or GAL4-ELK1 with or without KRC. 24 hours later, cells were stimulated with PMA plus ionomycin and analyzed for Luciferase activity as above. FIG. 20(C) Jurkat cells were transiently transfected with FLAG-JNK2, and either Vector, KRC, or MKK7. 48 hours later, cells were stimulated with PMA plus ionomycin for 6 hours and JNK activity was determined by immunoprecipitation/kinase assay. Equal amounts of FLAG-Jnk2 protein were immunoprecipitated, as judged by anti-FLAG western blot (lower panel).
For each transfection, 5×10^6 Jurkat cells were incubated with either IL2-Luc, NFAT/AP1-Luc or AP1-Luc reporter DNA together with pEF vector or pEF-KRC and CMV-βGAL as normalization control in 0.4 ml of RPMI and transfected by electroporation (260 v, 975 uF). Transfected cells were cultured at 37° C. for 20 h in RPMI 1640 medium (Gibco BRL) supplemented with 10% fetal bovine serum. Transfected cells were stimulated with PMA (50 ng/ml) and ionomycin (2 uM) for 6 hours prior to luciferase (Promega) and β-galactosidase assays (Galacton-PLUS substrate system, TROPIX, Inc).

JNK = JNK in vitro kinase assay after transfection of 293 cells; format: cell-based, human; conditions: 293 cells cotransfected with TRAF2, 24 hours
Method: Inhibition of TRAF2 (A) and TNFα (B, C) mediated JNK/SAPK activation by ectopic expression of KRC. (A) 293 T cells were transfected with 400 ng of TRAF2 and 2 μg of the indicated expression vector. Twenty-four hours after the transfection, the cells were harvested and lysed, and the endogenous JNK was precipitated with 5 μg of GST-cJUN (1-79) for 4 hours. JNK activity was determined by using GST-cJUN (1-79) as a substrate. (B,C) 293 T cells were cotransfected with vectors encoding HA-tagged JNK2 (500ng) and the indicated expression vector (2 μg). Twenty-four hours after the transfection cells were stimulated for 10 min with 10 ng/ml of TNFα and cells harvested at varying time points. JNK activity was assayed with GST-cJUN (1-79) as substrate.
Anti-HA or anti-FLAG immunoprecipitates were used for immune complex kinase assays that were performed at 30° C. for 30 min with 1 μg of substrate, 10 μCi of γ^32 P ATP, and 10 μM ATP in 30 μl of kinase buffer (20 mM HEPES, pH 7.4, 10 mM MgCl2, 25 mM β-glycerophosphate, 50 μm NA3VO4, and 50 μm DTT). The substrate was GST-c-JUN.

NIH 3T3 cells = assay: β-galactosidase cotransfection apoptosis assay in 3T3 cells; format: cell-based; conditions: TNFα 20 ng/ml
Method: 3T3 cells were cotransfected with CMV lacZ vector (300 ng per plate) and either empty expression vector or the expression vectors indicated (2 μg of each). Half of the transfected cultured cells were treated with TNFα (20 ng/ml) at 12 hours after the transfection and the other half left untreated. All the cells were fixed and stained at 36 hours after the transfection. The number of blue cells in each transfection was determined by counting six different fields. A representative experiment of three performed is presented.
β-galactosidase cotransfection assays for determination of cell death were performed as described (Hsu, et al.). Transfected NIH 3T3 cells were washed with PBS, fixed in PBS containing 3% paraformaldehyde for 10 min at 4° C., and washed with PBS. Fixed cells were stained overnight with XGal. The number of blue-stained cells was determined microscopically. The average number from one representative experiment of three is shown.

NFκB = NFκB luciferase reporter transfection assay in 293T cells; format: cell-based, human
Method: FIGS. 2(A)-2(C) depicts KRC preventing TRAF-dependent NFkB activation. Inhibition of TRAF2 (FIG. 2(A)), TRAF5 (FIG. 2(B)) and TRAF6 (FIG. 2(C)) mediated activation of NFkB by ectopically expressed KRC. 293 T cells (3×10^5 ) were transfected with 25 ng of NFkB luciferase reporter plasmid, 50 ng of CMVβGal and 1 μg of each indicated plasmid and 24 hours post transfection cells were harvested. Data from at least five experiments normalized for β galactosidase activity are shown. Vec refers to the empty MYC vector without the addition of TRAFs.
293 T cells (3×10^5 ) were transfected with 25 ng of NFκB luciferase reporter plasmid, 50 ng of CMVβGal and 1 μg of each indicated plasmid and 24 hours post transfection cells were stimulated for 4 hours with 10 ng/ml of TNFα. (A) KRC and KRC tr (B) dominant negative and antisense KRC (C) antisense KRC in the presence of exogenous TRAF2. Data from at least five experiments normalized for β galactosidase activity are shown.
HEK293 cells ([…] per well) were seeded in 6 well plates, and 12 h later cells were transfected with EFECTENE™ (Qiagen) with 25 ng of a 2XNFκB-luciferase (Luc) reporter gene plasmid and 0.5 μg of the indicated TRAF and KRC expression vectors. Total amounts of transfected DNA were kept constant by supplementing with control empty expression vector plasmids as needed. Cell extracts were prepared 24 h after transfection, and reporter gene activity was determined via the luciferase assay system (PROMEGA). PRSV-βGal vector (50 ng) was used to normalize for transfection efficiency by measuring β galactosidase activity using the Galacton-PLUS substrate system (TROPIX, Inc.). Whenever indicated, the cells were treated for 4 hours with TNFα or IL-1 (10 ng/ml). To generate stable transfectants, EFECTENE™ mediated transfection of the RAW cell line was performed and clones were selected and maintained in complete medium supplemented with G418 (2 mg/ml).

c-Jun = target: T1, c-Jun (Homo sapiens, UniProt P05412); assay: Coimmunoprecipitation / in vitro pull down with c-Jun; format: binding
T1 construct: expressed in transfected cells; host or cells: 293T cells (co-IP); in vitro translated, 35S-labelled c-Jun in the pull-down
T1 sequence (P05412 whole entry): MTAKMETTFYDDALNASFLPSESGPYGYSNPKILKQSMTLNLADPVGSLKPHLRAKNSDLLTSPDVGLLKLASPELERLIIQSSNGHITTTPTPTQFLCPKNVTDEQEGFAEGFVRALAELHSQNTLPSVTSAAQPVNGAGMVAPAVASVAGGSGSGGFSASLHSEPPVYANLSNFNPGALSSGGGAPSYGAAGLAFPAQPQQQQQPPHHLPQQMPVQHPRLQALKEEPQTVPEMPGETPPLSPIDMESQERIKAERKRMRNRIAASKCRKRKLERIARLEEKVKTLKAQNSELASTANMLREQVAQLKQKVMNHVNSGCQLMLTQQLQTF
Method: FIG. 21(A) 293T cells were transfected with c-Jun and myc-KRCtr. 48 hours later, lysates were immunoprecipitated with anti-Myc antibody. Immunoprecipitates were probed by western blotting with anti-c-Jun antibody. FIG. 21(B) (left panel) 293T cells were cotransfected with c-Jun and full length His-KRC. 48 hours later, lysates were immunoprecipitated with anti-His antibody (DE8 Omniprobe) and precipitates were probed by western blotting with anti-c-Jun antibody. (right panel) In vitro translated and S35-labelled c-Jun and His-KRCtr were mixed and immunoprecipitated with anti-His antibody. Recovered c-Jun protein was visualized by autoradiography. FIG. 21(C) Jurkat or EL4 T cells were stimulated with PMA plus ionomycin for 45 minutes. Lysates were immunoprecipitated with anti-c-Jun antibody, and immunoprecipitates were probed with specific anti-KRC rabbit antisera. FIG. 21(D) (upper panel) 293T cells were transfected with AP-1 Luciferase along with c-Jun, c-Fos, and KRC. 24 hours later, Luciferase activity was determined as above. (lower panel) 293T cells were transfected with GAL4 Luciferase along with GAL4, GAL4-c-Jun 1-224, or GAL4-c-Fos 208-313. 24 hours later, luciferase activity was determined as above. […]

RasN17: dominant negative Ras
KRC transactivation of the AP-1 reporter (AP-1): abolished the ability of KRC to enhance AP-1 transactivation

CC(=O)c1c(O)c(C)c(O)c(Cc2c(O)c3c(c(C(=O)/C=C/c4ccccc4)c2O)OC(C)(C)C=C3)c1O [Rottlerin]
KRC transactivation of the AP-1 reporter (AP-1): blocked | KRC transactivation of the AP-1 reporter (AP-1; listed as rottlerin): abolished the ability of KRC to enhance AP-1 transactivation

B1: KRC tr: truncated KRC, amino acid residues 204 to 1055 of SEQ ID NO:2 (protein, listed as Homo sapiens)
chain: PSVLQKHIRSHTGERPYPCGPCGFSFKTKSNLYKHRKSHAHRIKAGLASGMGGEMYPHGLEMERIPGEEFEEPTEGESTDSEEETSATSGHPAELSPRPKQPLLSSGLYSSGSHSSSHERCSLSQSSTAQSLEDPPPFVEPSSEHPLSHKPEDTHTIKQKLALRLSERKKVIDEQAFLSPGSKGSTESGYFSRSESAEQQVSPPNTNAKSYAEIIFGKCGRIGQRTAMLTATSTQPLLPLSTEDKPSLVPLSVPRTQVIEHITKLITINEAVVDTSEIDSVKPRRSSLSRRSSMESPKSSLYREPLSSHSEKTKPEQSLLSLQHPPSTAPPVPLLRSHSMPSAACTISTPHHPFRGSYSFDDHITDSEALSRSSHVFTSHPRMLKPQPAIELPLGGEYSSEEPGPSSKDTASKPSDEVEPKESELTKKTKKGLKTKGVIYECNICGARYKKRDNYEAHKKYYCSELQIAKPISAGTHTSPEAEKSQIEHEPWSQMMHYKLGTTLELTPLRKRRKEKSLGDEEEPPAFESTKSQFGSPGPSDAARNLPLESTKSPAEPSKSVPSLEGPTGFQPRTPKPGSGSESGKERRTTSKEISVIQHTSSFEKSDSLEQPSGLEGEDKPLAQFPSPPPAPHGRSAHSLQPKLVRQPNIQVPEILVTEEPDRPDTEPEPPPKEPEKTEEFQWPQRSQTLAQLPAEKAPPKKKRLRLAEMAQSSGESSFESSVPLSRSPSQESNVSLSGSSRSASFERDDHGKAEAPDPSSDMRPKPLGTHMLTVPSHHPHAREMRRSASEQSPNVSHSAHMTETRSKSFDYGSLSLTGPSAPAPVAPPAGEAPPERRKCFLVRSPSLSRPP
TRAF2-dependent JNK activation (JNK): blocked TRAF2-dependent JNK activation | TNFα-induced apoptosis (TNF mediated cytotoxicity) (NIH 3T3 cells): The same effect was observed | NFκB activation induced by TRAF5 and TRAF6 (NFκB; 293T cells): substantially but not completely affected | NFkB-dependent transactivation (NFκB; 293T cells, absence of exogenous TRAFs): blocked NFkB-dependent transactivation | TRAF2-induced NFκB activation (NFκB; 293T cells, exogenous TRAF2): blocked TRAF2-induced NFκB activation | TNFα-induced NFκB activation (NFκB; 293 cells, 10 ng/ml TNFα 4 hours): strongly inhibited TNFα-induced NFκB activation | physical association with c-Jun (c-Jun): physically associated with c-Jun | physical association with c-Jun (c-Jun; listed as KRCtr): interacted with c-Jun
